Data reported in US20150203577A1 (Chugai, published 2015).
Where a chain is given by its changes, count along the chain named.

B1: MB855 (antibody, mouse IgG1, kappa)
heavy: QVQLQESGPGLVKPSETLSLTCAVSGHSISHDHAWSWVRQPPGEGLEWIGFISYSGITNYNPSLQGRVTISRDNSKNTLYLQMNSLRAEDTAVYYCARSLARTTAMDYWGEGTLVTVSSAKTTPPSVYPLAPGSAAQTNSMVTLGCLVKGYFPEPVTVTWNSGSLSSGVHTFPAVLQSDLYTLSSSVTVPSSTWPSETVTCNVAHPASSTKVDKKIVPRDCGCKPCICEPNEVELVFIFPPKPKDVLTITLTPKVTCVVVDISKDDPEVQFSWFVDDVEVHTAQTQPREELFNSTFRSVSELPIMHQDWLNGKEFKCRVNSDGFPAPIERTISKTKGRPKAPQVYTIPPPKEQMAKDKVSLTCMITDFFPEDITVEWQWNGQPAENYKNTQPIMDTDGSYFVYSKLNVQKSNWEAGNTFTCSVLHEGLHNHHTEKSLSHSPGK
light: not shown
notes: CH name; VH H237 + CH, L chain MRAL-k0; copies: 2 + 2
B2: H237-MB647/MRAL-k0 (antibody, mouse IgG1, kappa)
heavy: B1 heavy with E229I, N231A, L235Y, L291Q, D322A, G323A, R330K
light: not shown
notes: mouse IgG1 CH variant; copies: 2 + 2
B3: H237-MB624/MRAL-k0 (antibody, mouse IgG1, kappa)
heavy: B1 heavy with P230D, N231Y, L291Q, D322A, G323A, R330K
light: not shown
notes: as for B2
B4: H237-MB633/MRAL-k0 (antibody, mouse IgG1, kappa)
heavy: B1 heavy with P230D, N231Y, L235N, L291Q, D322A, G323A, R330K
light: not shown
notes: as for B2
B5: MB857 (antibody, mouse IgG1, kappa)
heavy: B1 heavy with L291Q, N320D, E329Y, R330K
light: not shown
notes: as for B1
B6: MB860 (antibody, mouse IgG1, kappa)
heavy: B1 heavy with L291Q, E329Y
light: not shown
notes: as for B1
B7: H237-MB618/MRAL-k0 (antibody, mouse IgG1)
heavy: B1 heavy with E229T, P230V, N231P, V233E, E234D, L235D, L291Q, D322A, G323A, R330K
light: not shown
notes: as for B2
B8: MB862 (antibody, mouse IgG1, kappa)
heavy: B1 heavy with K264D, L291Q, P327Y, R330K
light: not shown
notes: as for B1
B9: H237-MB637/MRAL-k0 (antibody, mouse IgG1, kappa)
heavy: B1 heavy with N231A, L235N, L291Q, D322A, G323A, R330K
light: not shown
notes: as for B2
B10: MB858 (antibody, mouse IgG1, kappa)
heavy: B1 heavy with L291Q, N320D
light: not shown
notes: as for B1
B11: H237-MB607/MRAL-k0 (antibody, mouse IgG1, kappa)
heavy: B1 heavy with E229T, P230V, N231P, V233E, L235E, L291Q, D322A, G323A, R330K
light: not shown
notes: as for B2
B12: H237-MB617/MRAL-k0 (antibody, mouse IgG1, kappa)
heavy: QVQLQESGPGLVKPSETLSLTCAVSGHSISHDHAWSWVRQPPGEGLEWIGFISYSGITNYNPSLQGRVTISRDNSKNTLYLQMNSLRAEDTAVYYCARSLARTTAMDYWGEGTLVTVSSAKTTPPSVYPLAPGSAAQTNSMVTLGCLVKGYFPEPVTVTWNSGSLSSGVHTFPAVLQSDLYTLSSSVTVPSSTWPSETVTCNVAHPASSTKVDKKIVPRDCGCKPCICTVPEESDVDIFPPKPKDVLTITLTPKVTCVVVDISKDDPEVQFSWFVDDVEVHTAQTQPREEQFNSTFRSVSELPIMHQDWLNGKEFKCRVNSAAFPAPIEKTISKTKGRPKAPQVYTIPPPKEQMAKDKVSLTCMITDFFPEDITVEWQWNGQPAENYKNTQPIMDTDGSYFVYSKLNVQKSNWEAGNTFTCSVLHEGLHNHHTEKSLSHSPGK
light: not shown
notes: as for B2
B13: MB863 (antibody, mouse IgG1, kappa)
heavy: B1 heavy with K264D, L291Q, E329Y, R330K
light: not shown
notes: as for B1

Tests used:
[1] = biological target: T1, mouse FcγRII (mouse, UniProt P08101 30-210); assay: SPR (Biacore T200); KD of H237-MB630/MRAL-k0 / KD of variant
T1 construct: Extracellular domain with C-terminal His tag; also called mFcγRII; mFcgRII
T1 sequence: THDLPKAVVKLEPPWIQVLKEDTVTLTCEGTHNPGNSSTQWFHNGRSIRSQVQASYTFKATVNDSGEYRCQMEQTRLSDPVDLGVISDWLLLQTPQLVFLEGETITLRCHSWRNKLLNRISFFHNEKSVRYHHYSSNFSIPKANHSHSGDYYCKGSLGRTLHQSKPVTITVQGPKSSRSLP

[2] = biological target: T2, mouse FcγRIII (mouse, UniProt P08508 31-215); assay: as above
T2 construct: Extracellular domain with C-terminal His tag; also called mFcγRIII; mFcgRIII
T2 chain: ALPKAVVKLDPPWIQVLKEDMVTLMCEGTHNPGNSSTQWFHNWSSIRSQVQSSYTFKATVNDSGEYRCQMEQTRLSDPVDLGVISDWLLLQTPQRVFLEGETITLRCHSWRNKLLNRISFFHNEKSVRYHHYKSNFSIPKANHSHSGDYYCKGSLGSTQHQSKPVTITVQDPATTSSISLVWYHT

[3] = biological target: T1, mouse FcγRII; assay: SPR (Biacore T200); KD of H237-mIgG1/MRAL-k0 / KD of variant
[4] = biological target: T2, mouse FcγRIII; assay: as above
[5] = biological target: T3, mouse FcγRII (mouse, UniProt P08101 30-210); assay: SPR (Biacore), antibody captured on Protein L, mFcγR as analyte
T3 construct: also called mFcγRII; mFcgRII
T3 sequence: T1 sequence
Experimental: (§1) Each altered antibody was analyzed for its interaction with each Fcγ receptor prepared above using Biacore T100 (GE Healthcare Japan Corp.), Biacore T200 (GE Healthcare Japan Corp.), Biacore A100, or Biacore 4000. The running buffer used was HBS-EP+ (GE Healthcare Japan Corp.). The assay temperature was set to 25° C. The sensor chips used were chips prepared by immobilizing Protein L (ACTIGEN or BioVision) onto Series S Sensor Chip CM5 (GE Healthcare Japan Corp.) or Series S Sensor Chip CM4 (GE Healthcare Japan Corp.) by the amine coupling method.
(§2) In order to calculate the KD value of each altered antibody for FcγR, kinetic analysis was conducted according to the following method: first, the antibody of interest was captured onto any of these chips and allowed to interact with mFcγR diluted with a running buffer. For the obtained sensorgram, the assay results were globally fit into the 1:1 Langmuir binding model using Biacore Evaluation Software to calculate an association rate constant ka (L/mol/s) and a dissociation rate constant kd (1/s). From these values, the dissociation constant KD (mol/L) was calculated.

[6] = biological target: T4, mouse FcγRIII (mouse, UniProt P08508 31-215); assay: as above
T4 construct: also called mFcγRIII; mFcgRIII
T4 chain: T2 chain
Experimental: as §1, §2

Binder | Relative mFcγRII-binding activity (MB630 = 1) [1] | Relative mFcγRIII-binding activity (MB630 = 1) [2] | relative mFcγRII-binding activity (mIgG1 = 1) [3] | relative mFcγRIII-binding activity (mIgG1 = 1) [4] | Kd [5] | relative mFcγRII-binding activity (mIgG1 = 1) [5] | Kd [6] | relative mFcγRIII-binding activity (mIgG1 = 1) [6]
B1 | 3.41 fold | 6.21 fold | 36.2 fold | 1.14 fold | – | – | – | –
B2 | – | – | – | – | 200 nM | 1.16 fold | 2800 nM | 0.12 fold
B3 | – | – | – | – | 263 nM | 0.88 fold | 2870 nM | 0.11 fold
B4 | – | – | – | – | 75.8 nM | 3.05 fold | 1640 nM | 0.2 fold
B5 | 4.21 fold | 4.92 fold | 44.6 fold | 0.9 fold | – | – | – | –
B6 | 3.74 fold | 4.07 fold | 39.6 fold | 0.75 fold | – | – | – | –
B7 | – | – | – | – | 156 nM | 1.63 fold | 2730 nM | 0.13 fold
B8 | 6.41 fold | 10.8 fold | 67.9 fold | 1.98 fold | – | – | – | –
B9 | – | – | – | – | 80.7 nM | 2.87 fold | 1890 nM | 0.17 fold
B10 | 5.86 fold | 6.92 fold | 62 fold | 1.27 fold | – | – | – | –
B11 | – | – | – | – | 67.9 nM | 3.14 fold | 1770 nM | 0.18 fold
B12 | – | – | – | – | 255 nM | 0.84 fold | 2100 nM | 0.15 fold
B13 | 7.68 fold | 12.7 fold | 81.3 fold | 2.33 fold | – | – | – | –
